Earlier results as cited in PMC8745080.

Tests used:
His98 [1] = target: His98 (UniProt position 99, SEKFSHEQEVK); assay: not stated (the review mentions pH-dependent NMR measurements on cL-BABP in the same section); conditions: apo (ligand-free), folded
His98 [2] = target: T1, His98 (UniProt position 99, NFPNYHQTSEI); assay: NMR; conditions: apo (ligand-free), folded
His98 [3] = target: T1, His98; assay: not stated (NMR inferred from the apo data of the same reference); conditions: holo (bile-salt-bound; identity of the bound bile salts not given), folded

Chicken liver bile acid-binding protein (cL-BABP; liver basic fatty acid-binding protein) (Gallus gallus)
pKa (His98 [1]): 4.7

Human ileal bile acid-binding protein (hI-BABP; gastrotropin, FABP6), common isoform (Homo sapiens)
pKa (His98 [2]): 6.6 | pKa (His98 [3]): 7.0
